Source: patent US20020197702A1

How the values were obtained:
Test in all cases: cell-based or functional assay
[1] = molecular target: affinity purified membrane derived caspase-3 from 697 cell heavy membranes (human) (UniProt P42574)
[2] = molecular target: r-caspase-3 (His)6 (human) (UniProt P42574)
[3] = molecular target: T1, 697 Bcl-2 HM (caspase-1 treated) caspase (human) (UniProt P42574)
T1 sequence 1: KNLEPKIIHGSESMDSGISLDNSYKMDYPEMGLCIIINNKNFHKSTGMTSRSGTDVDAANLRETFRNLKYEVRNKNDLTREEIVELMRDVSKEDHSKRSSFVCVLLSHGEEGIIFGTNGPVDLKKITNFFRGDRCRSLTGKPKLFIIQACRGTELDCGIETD
T1 sequence 2: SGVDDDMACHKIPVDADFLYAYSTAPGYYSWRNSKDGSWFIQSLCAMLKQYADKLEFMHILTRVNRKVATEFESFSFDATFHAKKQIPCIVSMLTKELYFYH

[4] = molecular target: 697-neo HM (spontaneous activity) caspase (human) (UniProt P42574)
[5] = molecular target: T2, 697-neo HM (caspase-1 treated) caspase (human) (UniProt P42574)
T2 sequence 1: T1 sequence 1
T2 sequence 2: T1 sequence 2

| Substance | IC50, inhibition of DEVD-AMC cleavage activity [1] | IC50, inhibition of DEVD-AMC cleavage activity [2] | IC50, inhibition of DEVD-amc cleavage [3] | IC50, inhibition of DEVD-amc cleavage [4] | IC50, inhibition of DEVD-amc cleavage [5] |
| --- | --- | --- | --- | --- | --- |
| Protein p35 (early p35 protein from Autographa californica nuclear polyhedrosis virus) (from UniProt P08160 1-299) | 0.074 nM | 0.041 nM | – | – | – |
| YVAD-ald (peptide) | – | – | > 10000 nM | > 10000 nM | > 10000 nM |
